The target of the data set is T1, Protein tyrosine kinase 7 (PTK 7) (UniProt Q13308 31-704).
T1 sequence: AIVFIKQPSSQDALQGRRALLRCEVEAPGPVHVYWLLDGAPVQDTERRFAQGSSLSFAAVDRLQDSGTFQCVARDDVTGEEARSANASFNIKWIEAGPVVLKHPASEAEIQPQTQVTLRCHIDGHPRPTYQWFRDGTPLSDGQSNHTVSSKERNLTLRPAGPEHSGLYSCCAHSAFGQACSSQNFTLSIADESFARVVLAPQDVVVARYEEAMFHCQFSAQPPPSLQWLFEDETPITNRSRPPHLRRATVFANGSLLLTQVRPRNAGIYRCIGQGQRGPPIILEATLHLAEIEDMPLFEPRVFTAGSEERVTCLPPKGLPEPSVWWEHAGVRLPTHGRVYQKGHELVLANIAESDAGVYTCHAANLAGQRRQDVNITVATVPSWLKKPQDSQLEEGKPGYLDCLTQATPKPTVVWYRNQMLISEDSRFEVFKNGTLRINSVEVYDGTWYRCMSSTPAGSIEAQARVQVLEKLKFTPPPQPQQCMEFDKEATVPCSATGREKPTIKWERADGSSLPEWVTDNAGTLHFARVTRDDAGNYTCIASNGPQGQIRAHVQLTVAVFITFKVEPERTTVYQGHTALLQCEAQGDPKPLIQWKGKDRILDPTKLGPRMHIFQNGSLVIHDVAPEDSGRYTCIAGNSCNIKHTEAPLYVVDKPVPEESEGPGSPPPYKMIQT
Briefly: competition: displacement of y-CDs-APT from Fe3O4-cDNA, ratiometric fluorescence; Fe3O4-cDNA (S2) competitor strand; PTK7 0.1-200 ng/mL, LOD 0.016 ng/mL; Buffer, salt and pH not given in material; probe hybridisation 25 °C, 60 min; DNase I amplification. As to conditions: protein: recombinant; label: y-CDs (emission 580 nm); assayed pre-hybridised to partly complementary cDNA S2 on Fe3O4; PTK7 displaces S2.

Turning to ATCTAACTGCTGCGCCGCCGGGAAAATACTGTACGGTTAGA (ssDNA, conjugated to yellow carbon dots (y-CDs); attachment end not stated) [APT (PTK7 aptamer), as y-CDs-APT], the binding result is “binds”.

For the origin of these results see paper PMC7885398, “Multi-carbon dots and aptamer based signal amplification ratiometric fluorescence probe for protein tyrosine kinase 7 detection”.
